From PMC10847457 (Cell Discovery, 2024) come the findings set out here.

Assay [1] deals with T1, SARS-CoV-2 NTD (aa 1-305) (SARS-CoV-2, UniProt P0DTC2).
T1 construct: source: Expi293 cells, transient transfection (pCMV3), purified
Kind of assay: ELISA. To be noted: both partners purified.

The target of assay [2] is T2, SARS-CoV-2 RBD (aa 319-541) (SARS-CoV-2, UniProt P0DTC2).
T2 construct: source: Expi293 cells, transient transfection (pCMV3), purified
The assay is described as follows: ELISA. To be noted: both partners purified. A general note: In an ELISA, binding on a coated surface is turned into a signal by an enzyme label.

B1: PW5-5 (antibody, V domains shown)
VH: QVQLVQSGAEVKKPGASVKVSCKTSGYTFTDHYMYWVRQAPGQGLEWMGVINPDAGSVTYAQKFQGRVTMTSDTSTSTVYMELSSLRSEDTAVYYCARDLFFIPAANSFDYWGQGTLVTVSS
VL: EIVLTQSPATLSLSPGERATLSCRASQSVSSYLAWYQQKPGQAPRLLIYDATNRATGIPARFSGSGSGTDFTLTISSLEPEDFAVYYCQHRSNWPRMFTFGQGTKLEIK
notes: also called PW5-5 IgG; IgG PW5-5
B1: the binding result in assay [1] is recorded as “no binding”; in assay [2] it was “binds”.

B2: PW5-535 (antibody, V domains shown)
VH: EVRLVESGGGLVQPGGSLRLSCAASGFTFRNYDIHWVRQTTGKGLEWVSAVGTSGDTYYLDSVKGRFTISREDAKKSVYLQMNSLRAGDTAMYYCVRGDASPDNIYYYMDVWGTGTRVIVSS
VL: DIQVTQSPSPLSASVGDRVTITCRASQTIGKYLNWYHQIPGKAPKLLISAASTLHSGVPSRFSGRGSGTDFTLTISSLQPEDFGTYYCQQSYSSPPWTFGQGTKVEIK
With B2, the binding result is “no binding” in assay [1] and “binds” in assay [2].

B3: PW5-570 (antibody, V domains shown)
VH: QMQLVQSGPEVRKPGTSVKVSCRASVFSFDTSAVQWVRQARGQPLEWIGWIVFGSSNTDYAQKFRDRVTITGDMSTGTAYMELSSLRSEDTAVYYCAAPHCNRTNCHDGFDIWGQGTVVTVSS
VL: EIVLTQSPGTLSLSPGERATLSCRASQSVRSGYLGWYQQKPGQAPRLLIYGAYNRATGIPDRFRGSGSGTDFTLTISRLEPEDFVVYYCQQYDRSPWTFGQGTKVEIK
notes: also called PW5-570 IgG; PW5-570 immunoglobulin G
For the molecule B3, the binding result was “no binding” in assay [1] and “binds” in assay [2].
